Experimental data reported in publication PMC3514405.

Target: BLV nucleocapsid protein (NC) (Bovine leukemia virus, UniProt P03344)
Assay: ITC

BLV nucleocapsid protein (NC), sequence (P03344 324-392, tags left off): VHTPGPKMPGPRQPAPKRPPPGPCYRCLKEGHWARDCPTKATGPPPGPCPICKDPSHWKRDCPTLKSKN

CAACUCUCUG (ssRNA) [SLV-VI linker (10 nt)]
Kd: 92 ± 16 nM
